T1: FcγRIIa H (human, UniProt P12318 34-217)
T1 construct: extracellular domain; also called FcgRIIa H; 2aH; not shown: His tag attached to the C terminus
T1 sequence (looked up): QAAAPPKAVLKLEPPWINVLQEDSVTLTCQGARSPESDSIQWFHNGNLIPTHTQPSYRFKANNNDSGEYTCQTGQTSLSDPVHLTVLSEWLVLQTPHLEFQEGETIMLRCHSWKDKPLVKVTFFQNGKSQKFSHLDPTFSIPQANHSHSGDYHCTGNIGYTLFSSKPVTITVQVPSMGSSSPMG

T2: FcγRIIb (human, UniProt P31994 43-217)
T2 construct: extracellular domain; also called FcgRIIb; 2b; not shown: His tag attached to the C terminus
T2 sequence (looked up): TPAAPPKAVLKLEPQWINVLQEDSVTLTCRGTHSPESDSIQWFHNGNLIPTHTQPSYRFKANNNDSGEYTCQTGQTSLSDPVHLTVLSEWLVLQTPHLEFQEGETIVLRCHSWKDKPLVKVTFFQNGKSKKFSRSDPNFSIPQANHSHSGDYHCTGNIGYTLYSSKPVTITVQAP


Columns and labels:
FcγRIIa H [1] = molecular target: T1, FcγRIIa H; assay: SPR; He/Con for FcγRIIa H divided by He/Con for FcγRIIb
FcγRIIa H [2] = molecular target: T1, FcγRIIa H; assay: SPR (Biacore), antibody captured on antigen peptide chip, FcγR as analyte; relative binding activity
Experimental: (§1) The heterodimerized antibodies He Abs in which one of the H chains was introduced with an alteration were assayed for their binding activities to each activating FcγR and inhibitory FcγR according to the method described in Example 4. […] The activating FcγRs in FIGS. 26, 27, 28, and 29 are FcγRIa, FcγRIIa (R), FcγRIIa (H), and FcγRIIIa, respectively.
(§2) Analysis of interaction between objective antibody and the FcγR was carried out using Biacore T100 (GE Healthcare). HBS-EP+ (GE Healthcare) was used as the running buffer, and the measurement temperature was set to 25° C. Chips produced by immobilizing the antigen peptide by the amine coupling method to a Series S Sencor Chip CM5 (GE Healthcare), or alternatively, chips produced by allowing preliminarily biotinylated antigen peptides to interact with and immobilize onto a Series S Sensor Chip SA (certified) (GE Healthcare) were used. Antibodies of interest were captured onto an antigen peptide-immobilized chip, and allowed to interact to each FcγR diluted with running buffer. To regenerate and repeatedly use the chip, the antibodies captured on the chip were washed off by reacting 10 mM glycine-HCl, pH 1.5.

FcγRIIb = molecular target: T2, FcγRIIb; assay: as above
Experimental: as §1, §2

| Binder | He_2aH/2b (IIaH/IIb) (FcγRIIa H [1]) [ratio] | He/Con_2aH (FcγRIIa H [2]) | He/Con_2b (FcγRIIb) |
| --- | --- | --- | --- |
| GpH7-A5/GpH7-B3 variant D265_02A/GpL16-k0 (antibody, human IgG1, kappa, Heterodimerized anti-glypican-3 IgG1; mutation in one H chain only; also called He Ab) heavy 1: not shown heavy 2: not shown light: DIVMTQSPLSLPVTPGEPASISCQASESLVHSNRNTYLHWYLQKPGQSPQLLIYKVSNRFSGVPDRFSGSGSGTDFTLKISRVEAEDVGVYYCSQNTHVPPTFGQGTKVEIERTVAAPSVFIFPPSDEQLKSGTASVVCLLNNFYPREAKVQWKVDNALQSGNSQESVTEQDSKDSTYSLSSTLTLSKADYEKHKVYACEVTHQGLSSPVTKSFNRGEC | 1.58 | 31.3 % of GpH7-A5/GpH7-B3/GpL16-k0 (=100) | 19.9 % of GpH7-A5/GpH7-B3/GpL16-k0 (=100) |
| GpH7-A5/GpH7-B3 variant D265_19Q/GpL16-k0 (antibody, human IgG1, kappa, Heterodimerized anti-glypican-3 IgG1; mutation in one H chain only; also called He Ab) heavy 1: not shown heavy 2: not shown light: DIVMTQSPLSLPVTPGEPASISCQASESLVHSNRNTYLHWYLQKPGQSPQLLIYKVSNRFSGVPDRFSGSGSGTDFTLKISRVEAEDVGVYYCSQNTHVPPTFGQGTKVEIERTVAAPSVFIFPPSDEQLKSGTASVVCLLNNFYPREAKVQWKVDNALQSGNSQESVTEQDSKDSTYSLSSTLTLSKADYEKHKVYACEVTHQGLSSPVTKSFNRGEC | 1.43 | 47.7 % of GpH7-A5/GpH7-B3/GpL16-k0 (=100) | 33.4 % of GpH7-A5/GpH7-B3/GpL16-k0 (=100) |
| GpH7-A5/GpH7-B3 variant D265_18N/GpL16-k0 (antibody, human IgG1, kappa, Heterodimerized anti-glypican-3 IgG1; mutation in one H chain only; also called He Ab) heavy 1: not shown heavy 2: not shown light: DIVMTQSPLSLPVTPGEPASISCQASESLVHSNRNTYLHWYLQKPGQSPQLLIYKVSNRFSGVPDRFSGSGSGTDFTLKISRVEAEDVGVYYCSQNTHVPPTFGQGTKVEIERTVAAPSVFIFPPSDEQLKSGTASVVCLLNNFYPREAKVQWKVDNALQSGNSQESVTEQDSKDSTYSLSSTLTLSKADYEKHKVYACEVTHQGLSSPVTKSFNRGEC | 2.01 | 12.4 % of GpH7-A5/GpH7-B3/GpL16-k0 (=100) | 6.1 % of GpH7-A5/GpH7-B3/GpL16-k0 (=100) |
| GpH7-A5/GpH7-B3 variant D265_20W/GpL16-k0 (antibody, human IgG1, kappa, Heterodimerized anti-glypican-3 IgG1; mutation in one H chain only; also called He Ab) heavy 1: not shown heavy 2: not shown light: DIVMTQSPLSLPVTPGEPASISCQASESLVHSNRNTYLHWYLQKPGQSPQLLIYKVSNRFSGVPDRFSGSGSGTDFTLKISRVEAEDVGVYYCSQNTHVPPTFGQGTKVEIERTVAAPSVFIFPPSDEQLKSGTASVVCLLNNFYPREAKVQWKVDNALQSGNSQESVTEQDSKDSTYSLSSTLTLSKADYEKHKVYACEVTHQGLSSPVTKSFNRGEC | 2.86 | 3.2 % of GpH7-A5/GpH7-B3/GpL16-k0 (=100) | 1.1 % of GpH7-A5/GpH7-B3/GpL16-k0 (=100) |
| GpH7-A5/GpH7-B3 variant D265_04F/GpL16-k0 (antibody, human IgG1, kappa, Heterodimerized anti-glypican-3 IgG1; mutation in one H chain only; also called He Ab) heavy 1: not shown heavy 2: not shown light: DIVMTQSPLSLPVTPGEPASISCQASESLVHSNRNTYLHWYLQKPGQSPQLLIYKVSNRFSGVPDRFSGSGSGTDFTLKISRVEAEDVGVYYCSQNTHVPPTFGQGTKVEIERTVAAPSVFIFPPSDEQLKSGTASVVCLLNNFYPREAKVQWKVDNALQSGNSQESVTEQDSKDSTYSLSSTLTLSKADYEKHKVYACEVTHQGLSSPVTKSFNRGEC | 1.28 | 4.1 % of GpH7-A5/GpH7-B3/GpL16-k0 (=100) | 3.2 % of GpH7-A5/GpH7-B3/GpL16-k0 (=100) |
| GpH7-A5/GpH7-B3 variant D265_12R/GpL16-k0 (antibody, human IgG1, kappa, Heterodimerized anti-glypican-3 IgG1; mutation in one H chain only; also called He Ab) heavy 1: not shown heavy 2: not shown light: DIVMTQSPLSLPVTPGEPASISCQASESLVHSNRNTYLHWYLQKPGQSPQLLIYKVSNRFSGVPDRFSGSGSGTDFTLKISRVEAEDVGVYYCSQNTHVPPTFGQGTKVEIERTVAAPSVFIFPPSDEQLKSGTASVVCLLNNFYPREAKVQWKVDNALQSGNSQESVTEQDSKDSTYSLSSTLTLSKADYEKHKVYACEVTHQGLSSPVTKSFNRGEC | 1.87 | 28 % of GpH7-A5/GpH7-B3/GpL16-k0 (=100) | 15 % of GpH7-A5/GpH7-B3/GpL16-k0 (=100) |
| GpH7-A5/GpH7-B3 variant D265_06M/GpL16-k0 (antibody, human IgG1, kappa, Heterodimerized anti-glypican-3 IgG1; mutation in one H chain only; also called He Ab) heavy 1: not shown heavy 2: not shown light: DIVMTQSPLSLPVTPGEPASISCQASESLVHSNRNTYLHWYLQKPGQSPQLLIYKVSNRFSGVPDRFSGSGSGTDFTLKISRVEAEDVGVYYCSQNTHVPPTFGQGTKVEIERTVAAPSVFIFPPSDEQLKSGTASVVCLLNNFYPREAKVQWKVDNALQSGNSQESVTEQDSKDSTYSLSSTLTLSKADYEKHKVYACEVTHQGLSSPVTKSFNRGEC | 1.35 | 13.5 % of GpH7-A5/GpH7-B3/GpL16-k0 (=100) | 10 % of GpH7-A5/GpH7-B3/GpL16-k0 (=100) |
| GpH7-A5/GpH7-B3 variant D265_07I/GpL16-k0 (antibody, human IgG1, kappa, Heterodimerized anti-glypican-3 IgG1; mutation in one H chain only; also called He Ab) heavy 1: not shown heavy 2: not shown light: DIVMTQSPLSLPVTPGEPASISCQASESLVHSNRNTYLHWYLQKPGQSPQLLIYKVSNRFSGVPDRFSGSGSGTDFTLKISRVEAEDVGVYYCSQNTHVPPTFGQGTKVEIERTVAAPSVFIFPPSDEQLKSGTASVVCLLNNFYPREAKVQWKVDNALQSGNSQESVTEQDSKDSTYSLSSTLTLSKADYEKHKVYACEVTHQGLSSPVTKSFNRGEC | 2.35 | 3.1 % of GpH7-A5/GpH7-B3/GpL16-k0 (=100) | 1.3 % of GpH7-A5/GpH7-B3/GpL16-k0 (=100) |
